Laboratory results from the supplement of paper PMC10126150.
± gives the standard deviation of the averaged measurements.

Test system: ATP
Test: switch fluorescence ratio, 500 uM ATP over buffer (Cy3 cluster intensity, sum of 5 cycles each) (fold (ratio)); higher = stronger signal-on switching upon ATP binding; sequences stand for … in TCGTCGGCAGCGTCAGATGTGTATAAGAGACAGTTTTTTTTTTTTTTTTTTTTTTTTT…TC
Details: aptamer strand: ATP DNA aptamer (quencher-CACCTGGGGGAGTATTGCGGAGGAAGG + anchor), 100 nM annealed; ATP concentration: 500 uM
Summary of the method: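 Exposure to 500 uM ATP lasted 15 min at 22 °C before imaging, and a selection-buffer image was taken beforehand, for Cy3-labelled switching-strand clusters on a modified Illumina MiSeq flow-cell annealed to 100 nM quencher-labelled ATP aptamer. Five buffer/ATP cycles were run with NaOH stripping and re-annealing between them. The fluorescence ratio per cluster is summed target-cycle over summed buffer-cycle Cy3 intensity, averaged per switch-domain sequence. Clusters outside 100-1000 RFU were excluded.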

Sequence | switch fluorescence ratio
CGTGTTGTAG | 1.02 ± 0.017
CGTGTTGTGG | 0.97 ± 0.067
CGTGTTTGTG | 0.999 ± 0.067
CGTGTTTTTC | 0.996 ± 0.026
CGTTAAGGGT | 0.98 ± 0.031
CGTTAAGTGG | 0.973 ± 0.04
CGTTAATAGC | 1.14 ± 0.019
CGTTACGAGC | 1.04 ± 0.059
CGTTACGGGG | 0.9788 ± 0.0055
CGTTACGTGT | 1.026 ± 0.0042
CGTTAGATT | 0.967 ± 0.011
CGTTAGATTG | 0.998 ± 0.051
CGTTAGGGTA | 0.9911 ± 0.003
CGTTAGTAAG | 0.982 ± 0.033
CGTTATCGGA | 1 ± 0.041
CGTTATGCCT | 0.975 ± 0.061
CGTTATTGAA | 0.9834 ± 0.0067
CGTTCAAGTT | 1 ± 0.024
CGTTCAATGG | 1.23 ± 0.05
CGTTCCCGTG | 0.9811 ± 0.0031
CGTTCGACTG | 0.97 ± 0.025
CGTTCTTCGC | 1.07 ± 0.094

Sequence | switch fluorescence ratio
CGTTGAGGTT | 0.979 ± 0.026
CGTTGCAGT | 0.986 ± 0.011
CGTTGCGGGG | 0.9751 ± 0.0073
CGTTGCTCCC | 1.3 ± 0.49
CGTTGCTTGG | 1 ± 0.046
CGTTGGGGAG | 1.02 ± 0.03
CGTTGGGGT | 0.986 ± 0.019
CGTTGGGGTT | 1.02 ± 0.036
CGTTGGGTCT | 1 ± 0.018
CGTTGGTCGC | 1.01 ± 0.016
CGTTGTATCT | 1 ± 0.035
CGTTGTGGGA | 1.01 ± 0.038
CGTTTAACGT | 0.989 ± 0.047
CGTTTAATAA | 1.008 ± 0.0091
CGTTTACCGA | 0.942 ± 0.034
CGTTTACCTG | 0.983 ± 0.0042
CGTTTAGGGA | 1.004 ± 0.0026
CGTTTAGTCA | 1.01 ± 0.023
CGTTTATGAG | 1.022 ± 0.0067
CGTTTATGGT | 0.967 ± 0.022
CGTTTATGTA | 0.995 ± 0.04
CGTTTATTCA | 1.036 ± 0.0079

Sequence | switch fluorescence ratio
CGTTTCACTA | 0.9736 ± 0.0019
CGTTTCAGAT | 1.02 ± 0.02
CGTTTCATGC | 1.05 ± 0.056
CGTTTCGAAT | 0.96 ± 0.027
CGTTTCTTTG | 0.966 ± 0.019
CGTTTGGAGC | 0.968 ± 0.031
CGTTTGGCAG | 1.019 ± 0.0025
CGTTTGGCTT | 1.01 ± 0.008
CGTTTGGTGT | 1.0115 ± 1.5e-05
CGTTTGTCAG | 0.965 ± 0.033
CGTTTGTTCC | 1.0348 ± 0.00023
CGTTTTACCG | 1.02 ± 0.032
CGTTTTCTGT | 0.978 ± 0.024
CGTTTTTAGA | 0.967 ± 0.031
CTAAATATAT | 1.03 ± 0.013
CTAAATATTA | 1.031 ± 0.0049
CTAACGGGCT | 0.995 ± 0.058
CTAACGTATA | 1.18 ± 0.036
CTAACTGCAT | 1.18 ± 0.031
CTAACTTATT | 1.01 ± 0.013
CTAAGAAGCG | 1.1 ± 0.17
CTAAGAATAG | 1.02 ± 0.021

Sequence | switch fluorescence ratio
CTAAGGGGCT | 1.01 ± 0.015
CTAAGGGGGT | 0.9503 ± 0.0032
CTAAGGTTGG | 0.974 ± 0.034
CTAATAGTT | 1 ± 0.048
CTAATATCTC | 1.016 ± 0.01
CTAATCATAA | 1 ± 0.052
CTAATCTAGC | 1.045 ± 0.0017
CTAATGGACC | 1.01 ± 0.03
CTAATGGCTT | 0.977 ± 0.033
CTAATGGGAG | 0.9726 ± 0.0092
CTAATGGGTT | 0.98 ± 0.037
CTAATGTTGT | 1.02 ± 0.028
CTAATTCGAG | 0.9919 ± 0.0026
CTAATTGTAG | 0.9884 ± 0.0029
CTACAATGGA | 1 ± 0.029
CTACATACGG | 1.52 ± 0.02
CTACATGACT | 1.13 ± 0.025
CTACATGTAA | 1.03 ± 0.081
CTACCCTTTG | 1.13 ± 0.038
